Measured values from the supplement of paper PMC10598134.
± gives the standard deviation.

Assay: collision cross section of modified peptide (TIMS, N2, iRT-aligned); higher = larger / more extended gas-phase ion
Method in brief: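 Synthetic peptide pools (~100 fmol/µL in 2% acetonitrile/0.1% formic acid, iRT standard spiked 1:40) were separated on a 120-min nanoflow C18 gradient at 60 °C. They were analysed on a timsTOF Pro/HT (dda-PASEF, nitrogen, ~2.4 mbar) and identified with MaxQuant. 1/K0 was calibrated with three reference ions and aligned run-wise to the median iRT peptide deviation. Collision cross section came from the Mason-Schamp equation, averaging 1–3 technical replicates of the most abundant feature per charge state.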

[1] = charge state: 2, modification: Dimethyl (K)
[2] = charge state: 3, modification: Dimethyl (K)
[3] = charge state: 2, modification: Formyl
[4] = charge state: 2, modification: Glutarylation
[5] = charge state: 2, modification: GlyGly (K)
[6] = charge state: 3, modification: GlyGly (K)
[7] = charge state: 2, modification: Malonyl
[8] = charge state: 2, modification: Methyl (K)
[9] = charge state: 3, modification: Methyl (K)
[10] = charge state: 2, modification: Propionyl
[11] = charge state: 2, modification: Succinyl
[12] = charge state: 3, modification: Trimethyl (K)
[13] = charge state: 2, modification: hydroxyisobutyryl
[14] = charge state: 2, modification: Acetyl (K)
[15] = charge state: 3, modification: Acetyl (K)
[16] = charge state: 2, modification: Butyryl
[17] = charge state: 3, modification: Butyryl
[18] = charge state: 3, modification: Crotonyl
[19] = charge state: 3, modification: Formyl
[20] = charge state: 3, modification: Glutarylation
[21] = charge state: 3, modification: Malonyl
[22] = charge state: 3, modification: Succinyl
[23] = charge state: 3, modification: hydroxyisobutyryl
[24] = charge state: 2, modification: Nitro (Y)
[25] = charge state: 2, modification: Phospho (Y)
[26] = charge state: 2, modification: HexNAc (ST)
[27] = charge state: 3, modification: HexNAc (ST)
[28] = charge state: 2, modification: Citrullination (R)
[29] = charge state: 2, modification: Methyl (R)
[30] = charge state: 3, modification: Methyl (R)
[31] = charge state: 2, modification: Hydroxyproline
[32] = charge state: 3, modification: Hydroxyproline
[33] = charge state: 3, modification: Citrullination (R)

For LEQVEKELLR [_LEQVEK(Dimethyl (K))ELLR_], the collision cross section [1] was 388.36 ± 0.25 Å² and the collision cross section [2] was 444.88 ± 2.1 Å².
LEQVEKELLR [_LEQVEK(Formyl)ELLR_] showed a collision cross section [3] of 382.29 ± 0.41 Å².
For “LEQVEKELLR [_LEQVEK(Gluratylation)ELLR_]”, the collision cross section [4] was 392.7 ± 0.12 Å².
Work on LEQVEKELLR [_LEQVEK(GlyGly (K))ELLR_] yielded a collision cross section [5] of 394.68 ± 0.37 Å² and a collision cross section [6] of 460.7 ± 1.1 Å².
In the case of LEQVEKELLR [_LEQVEK(Malonyl)ELLR_], the collision cross section [7] is reported as 382.93 ± 0.62 Å².
Work on LEQVEKELLR [_LEQVEK(Methyl (K))ELLR_] yielded a collision cross section [8] of 386.67 ± 0.96 Å² and a collision cross section [9] of 448.53 ± 4.9 Å².
Sequence LEQVEKELLR [_LEQVEK(Propionyl)ELLR_] has a collision cross section [10] of 387.92 ± 0.44 Å².
With LEQVEKELLR [_LEQVEK(Succinyl)ELLR_] the collision cross section [11] was 384.25 ± 0.76 Å².
With “LEQVEKELLR [_LEQVEK(Trimethyl (K))ELLR_]” the collision cross section (charge state: 2, modification: Trimethyl (K)) was 387.44 ± 0.62 Å² and the collision cross section [12] was 446.8 ± 1.8 Å².
For “LEQVEKELLR [_LEQVEK(hydroxyisobutyryl)ELLR_]”, the collision cross section [13] was 394.74 ± 0.29 Å².
Sequence “LFVGGIKEDTEEHHLR [_LFVGGIK(Acetyl (K))EDTEEHHLR_]” has a collision cross section [14] of 494.34 Å² and a collision cross section [15] of 543.04 ± 0.75 Å².
“LFVGGIKEDTEEHHLR [_LFVGGIK(Butyryl)EDTEEHHLR_]” showed a collision cross section [16] of 500.41 ± 0.28 Å² and a collision cross section [17] of 545.89 ± 1.3 Å².
Sequence “LFVGGIKEDTEEHHLR [_LFVGGIK(Crotonyl)EDTEEHHLR_]” has a collision cross section [18] of 544.97 ± 1.3 Å².
Sequence “LFVGGIKEDTEEHHLR [_LFVGGIK(Formyl)EDTEEHHLR_]” has a collision cross section [19] of 535.03 ± 1.3 Å².
“LFVGGIKEDTEEHHLR [_LFVGGIK(Gluratylation)EDTEEHHLR_]” gave a collision cross section [4] of 501.63 ± 1.9 Å² and a collision cross section [20] of 544.37 ± 0.97 Å².
“LFVGGIKEDTEEHHLR [_LFVGGIK(GlyGly (K))EDTEEHHLR_]” gave a collision cross section [5] of 499.18 Å² and a collision cross section [6] of 544.61 ± 1.1 Å².
Sequence “LFVGGIKEDTEEHHLR [_LFVGGIK(Malonyl)EDTEEHHLR_]” has a collision cross section [21] of 537.8 Å².
With “LFVGGIKEDTEEHHLR [_LFVGGIK(Methyl (K))EDTEEHHLR_]” the collision cross section [9] was 545.41 Å².
Sequence “LFVGGIKEDTEEHHLR [_LFVGGIK(Succinyl)EDTEEHHLR_]” has a collision cross section [11] of 497.55 Å² and a collision cross section [22] of 541.97 ± 1.1 Å².
Sequence “LFVGGIKEDTEEHHLR [_LFVGGIK(hydroxyisobutyryl)EDTEEHHLR_]” has a collision cross section [13] of 501.81 Å² and a collision cross section [23] of 546.81 ± 1.2 Å².
“LGDVYVNDAFGTAHR [_LGDVY(Nitro (Y))VNDAFGTAHR_]” showed a collision cross section [24] of 443.1 ± 0.55 Å² and a collision cross section (charge state: 3, modification: Nitro (Y)) of 500.36 ± 1.2 Å².
Sequence “LGGDLGTYVINK [_LGGDLGTY(Nitro (Y))VINK_]” has a collision cross section [24] of 371.97 ± 0.72 Å².
Sequence “LGGDLGTYVINK [_LGGDLGTY(Phospho (Y))VINK_]” has a collision cross section [25] of 375.25 ± 0.063 Å².
LGHYATQLQK [_LGHYAT(HexNAc (ST))QLQK_] gave a collision cross section [26] of 388.93 ± 0.68 Å² and a collision cross section [27] of 446.62 ± 0.17 Å².
“LGILPVGRGK [_LGILPVGR(Citrullination (R))GK_]” gave a collision cross section [28] of 340.52 ± 0.26 Å².
For LGILPVGRGK [_LGILPVGR(Methyl (R))GK_], the collision cross section [29] was 355.35 ± 1.4 Å² and the collision cross section [30] was 437.92 Å².
For LGNDFHTNKR [_LGNDFHTNK(Acetyl (K))R_], the collision cross section [14] was 373.86 ± 3.5 Å² and the collision cross section [15] was 444.24 ± 4 Å².
Sequence LGNDFHTNKR [_LGNDFHTNK(Butyryl)R_] has a collision cross section [16] of 377.65 ± 0.22 Å² and a collision cross section [17] of 446.3 ± 2.8 Å².
In the case of LGNDFHTNKR [_LGNDFHTNK(Crotonyl)R_], the collision cross section (charge state: 2, modification: Crotonyl) is reported as 379.22 ± 1.3 Å² and the collision cross section [18] is reported as 445.34 ± 2 Å².
LGNDFHTNKR [_LGNDFHTNK(Dimethyl (K))R_] gave a collision cross section [1] of 366.02 ± 0.57 Å² and a collision cross section [2] of 412.91 ± 1.1 Å².
Work on LGNDFHTNKR [_LGNDFHTNK(Formyl)R_] yielded a collision cross section [3] of 366.48 ± 1.5 Å² and a collision cross section [19] of 438.07 ± 2.4 Å².
Sequence “LGNDFHTNKR [_LGNDFHTNK(Gluratylation)R_]” has a collision cross section [4] of 382 ± 0.1 Å² and a collision cross section [20] of 434.71 ± 2.9 Å².
With LGNDFHTNKR [_LGNDFHTNK(GlyGly (K))R_] the collision cross section [5] was 384.34 ± 1.5 Å² and the collision cross section [6] was 447.63 ± 1.2 Å².
With LGNDFHTNKR [_LGNDFHTNK(Malonyl)R_] the collision cross section [7] was 378.38 Å².
For LGNDFHTNKR [_LGNDFHTNK(Methyl (K))R_], the collision cross section [8] was 368.02 ± 0.46 Å² and the collision cross section [9] was 430.67 ± 6.2 Å².
In the case of LGNDFHTNKR [_LGNDFHTNK(Propionyl)R_], the collision cross section [10] is reported as 374.29 Å² and the collision cross section (charge state: 3, modification: Propionyl) is reported as 447.46 ± 0.59 Å².
Sequence LGNDFHTNKR [_LGNDFHTNK(Succinyl)R_] has a collision cross section [11] of 377.52 ± 0.24 Å² and a collision cross section [22] of 436.15 ± 2.9 Å².
With “LGNDFHTNKR [_LGNDFHTNK(Trimethyl (K))R_]” the collision cross section [12] was 415.91 ± 2.1 Å².
For “LGNDFHTNKR [_LGNDFHTNK(hydroxyisobutyryl)R_]”, the collision cross section [13] was 382.96 ± 0.86 Å² and the collision cross section [23] was 448.25 ± 2.7 Å².
Work on “LGNTISSLFGGGTTPDAK [_LGNTISSLFGGGT(HexNAc (ST))TPDAK_]” yielded a collision cross section [26] of 471.52 Å².
LGPNDQYK [_LGPNDQY(Nitro (Y))K_] gave a collision cross section [24] of 332.94 ± 1.8 Å².
LGPNDQYK [_LGPNDQY(Phospho (Y))K_] showed a collision cross section [25] of 336.82 ± 0.067 Å².
Sequence “LGPPGNPGPSGSPGPK [_LGPPGNP(Hydroxyproline)GPSGSPGPK_]” has a collision cross section [31] of 386.54 ± 0.27 Å² and a collision cross section [32] of 431.89 Å².
With “LGPPGNPGPSGSPGPKGQK [_LGPPGNP(Hydroxyproline)GPSGSPGPKGQK_]” the collision cross section [32] was 472.87 ± 1.2 Å².
Sequence “LGPPGNPGPSGSPGPKGQK [_LGPPGNPGPSGSP(Hydroxyproline)GPKGQK_]” has a collision cross section [31] of 423.7 ± 3 Å².
“LGSASSSHGSIQESHK [_LGS(HexNAc (ST))ASSSHGSIQESHK_]” showed a collision cross section [27] of 519.96 ± 0.18 Å².
LGSPSGKTGTCR [_LGSPSGK(Butyryl)TGTCR_] gave a collision cross section [16] of 373.24 ± 0.22 Å².
Work on “LGSPSGKTGTCR [_LGSPSGK(Gluratylation)TGTCR_]” yielded a collision cross section [4] of 369.43 ± 0.9 Å².
For “LGSPSGKTGTCR [_LGSPSGK(GlyGly (K))TGTCR_]”, the collision cross section [6] was 454.35 ± 1.5 Å².
With LGSPSGKTGTCR [_LGSPSGK(Malonyl)TGTCR_] the collision cross section [7] was 365.24 ± 0.013 Å².
With LGSPSGKTGTCR [_LGSPSGK(Succinyl)TGTCR_] the collision cross section [11] was 368.12 ± 0.52 Å².
For “LGSPSGKTGTCR [_LGSPSGK(hydroxyisobutyryl)TGTCR_]”, the collision cross section [13] was 375.43 Å².
Work on “LGTTPSVYGGAGGRGIR [_LGTTPSVYGGAGGR(Citrullination (R))GIR_]” yielded a collision cross section [28] of 423 ± 0.56 Å² and a collision cross section [33] of 500.66 ± 24 Å².
For “LGTTPSVYGGAGGRGIR [_LGTTPSVYGGAGGR(Methyl (R))GIR_]”, the collision cross section [30] was 525.94 ± 0.78 Å².
“LGVATVAKGVCGACK [_LGVATVAK(Acetyl (K))GVCGACK_]” gave a collision cross section [14] of 413.53 ± 0.49 Å².
Sequence “LGVATVAKGVCGACK [_LGVATVAK(Biotin)GVCGACK_]” has a collision cross section (charge state: 2, modification: Biotin) of 431.82 Å² and a collision cross section (charge state: 3, modification: Biotin) of 507.7 Å².
With “LGVATVAKGVCGACK [_LGVATVAK(Butyryl)GVCGACK_]” the collision cross section [16] was 418.39 ± 0.77 Å² and the collision cross section [17] was 491.64 Å².
Work on “LGVATVAKGVCGACK [_LGVATVAK(Gluratylation)GVCGACK_]” yielded a collision cross section [4] of 422.53 Å² and a collision cross section [20] of 500.02 Å².
For “LGVATVAKGVCGACK [_LGVATVAK(GlyGly (K))GVCGACK_]”, the collision cross section [5] was 453.34 ± 1.4 Å² and the collision cross section [6] was 497.41 ± 0.34 Å².
With “LGVATVAKGVCGACK [_LGVATVAK(Malonyl)GVCGACK_]” the collision cross section [7] was 416.08 ± 0.71 Å² and the collision cross section [21] was 487.74 Å².
In the case of “LGVATVAKGVCGACK [_LGVATVAK(Methyl (K))GVCGACK_]”, the collision cross section [8] is reported as 433.3 ± 0.37 Å² and the collision cross section [9] is reported as 457.05 ± 3.9 Å².
Work on “LGVATVAKGVCGACK [_LGVATVAK(Succinyl)GVCGACK_]” yielded a collision cross section [11] of 417.57 ± 0.55 Å².
Sequence “LGVATVAKGVCGACK [_LGVATVAK(hydroxyisobutyryl)GVCGACK_]” has a collision cross section [13] of 419.46 ± 1.2 Å².
With “LGVPGLPGYPGR [_LGVPGLPGYP(Hydroxyproline)GR_]” the collision cross section [31] was 362.53 ± 0.8 Å².
For “LGVPGLPGYPGRQGPK [_LGVPGLP(Hydroxyproline)GYPGRQGPK_]”, the collision cross section [31] was 416.79 ± 1.1 Å² and the collision cross section [32] was 499.55 ± 1.2 Å².
Sequence “LLALSGPGGGRGR [_LLALSGPGGGR(Citrullination (R))GR_]” has a collision cross section [28] of 366.92 ± 1 Å² and a collision cross section [33] of 440.81 ± 17 Å².
For “LLALSGPGGGRGR [_LLALSGPGGGR(Methyl (R))GR_]”, the collision cross section [29] was 387.94 ± 0.53 Å² and the collision cross section [30] was 446.53 ± 3.2 Å².
